Measurements taken from paper PMC6978647.
Like-named read-outs stand apart in the source and are kept apart here.

Tests used:
[1] = target: aeBlue chromoprotein (Actinia equina); experiment: SEC
[2] = target: aeBlue chromoprotein (Actinia equina); experiment: SEC; remark: listed apart in the source

Work on aeBlue chromoprotein (natural protein) yielded a stoichiometry N [1] of 3.84 subunits and a stoichiometry N [2] of 4.45 subunits.
